Assay: soluble on expression in E. coli; label from the status in PepcDB or PDB records

With “MSSSRHFSIPYDEDVVHSVILENTPSPPPKPPRGILRKEAPMKPQRSALKIEPARDDDKENNSQPQARSQFKAKDTMEQMQSYFKRSISVLRKSEEHFTGAEAADILTAYIETHRNEFPRDNIGRSNAVKLLEIWLESNTIQSVESHQKKFVDSERTFYRLGGDSESLYIVNTPIASRNHDDSASVSRSESSRRSNSIKRLFSPFVRRNRSNSRGRDKDKDNLKDGSSTNLKSTWSLFSSSSEKNEKKLKKAEQQLIKEEEAEVYELSLFHLLSLIDVEFLEDVALPVQDSKNNASFLSSILGKVGLGASEERLDPHQEDHMDLLIETHPLIRDASQWFQMARCCAPLLYFEAKPVASNHKTSHNEQLYLWCRAALDAVKNRLEKMTQNGSSPLFPSEFAPLLTKIAQQLINDMDSGEKLSTAVMYIFLMVPHPIRKTIDQLVQWLQLTMRTDAVEDLRSPYYLGKKDPRRYKENVNVIIGELSSFIFPRGCMTNVQQDIFIETLVELRQKGKLGQRPAQLESSLRAKSVNGQIKWQRKERKHNSLEGDLTPVRYTVRRESIRSKTSKSKDGLNETDSALVTMINSVIDNKELSLTEKKKQLMNFKKFYPKLYNDFFPGMI” the “soluble on expression in E. coli” value was “not soluble”.

For “MKALTARQQEVFDLIRDHISQTGMPPTRAEIAQRLGFRSPNAAEEHLKALARKGVIEIVSGASRGIRLLQEEEEGLPLVGRVAADEPLLAQQHIEGHYQVDPSLFKPNADFLLRVSGMSMKDIGIMDGDLLAVHKTQDVRNGQVVVARIDDEVTVKRLKKQGNKVELLPENSEFKPIVVDLRQQSFTIEGLAVGVIRNGDWL”, the “soluble on expression in E. coli” value was “soluble”.

With “MSLHNNIDAFTLKPRHVEQIRQALPEVAITVSASDSDFMDRLPDAEYALVWVFKPEWYATAPRLKALFTPAAGRDWVAADPSGRVMTCHGSFHGRIMRESLLSMMLYFNRRLGQSLEDQGRRMWGRPDYSGCVGLFSQRVMIVGLGALGQSMAELLKAFGAHVTGVKRNPESFAGSPCVDRVISFDALEEALPEADHVVLLLPGGTATDGIFTARHFNAMRPGAYLYNLGRGNCYREEDLVAALEDGRLAGAGLDVFAEEPLPASSPLWEQRNVLITPHSSAISREYLDLFIQEWLETLRKGAPQNEGHHHHHH” the “soluble on expression in E. coli” value was “not soluble”.

With “MSLTNDERILSWNETPSKPRYTPPPGAIDAHCHVFGPMAQFPFSPKAKYLPRDAGPDMLFALRDHLGFARNVIVQASCHGTDNAATLDAIARAQGKARGIAVVDPAIDEAELAALHEGGMRGIRFNFLKRLVDDAPKDKFLEVAGRLPAGWHVVIYFEADILEELRPFMDAIPVPIVIDHMGRPDVRQGPDGADMKAFRRLLDSREDIWFKATCPDRLDPAGPPWDDFARSVAPLVADYADRVIWGTDWPHPNMQDAIPDDGLVVDMIPRIAPTPELQHKMLVTNPMRLYWSEEMEGHHHHHH” the “soluble on expression in E. coli” value was “soluble”.

For “GPGSMQQPGSHQIQPIDSLTPFLGGKWWIRARVTDKTDIRTWNKPTSQGKLFSFTLIDESAAIRATVFNDAVDTFEPLIVNGQVYYFSGGQVKNANRRFSNVNNDYELTFDRSSEIMLARQDTSTAALPMQRYNFVPIELLKQREVGSLVDVLGVVLKVDEVSSITQKSTGRELMKRNVKMGDMTAAVEVTFWNDEAKAWCYPVGTVVALRQLKVGSFDGVTLSSTYQTKIDINPTDLPDVKKLATWYVATGGANVTSLSSQGLGAASGAGGESDRGRKYLDEIQSEGIGRGLKPEYVDVRCVPIYFKQDAQWYDACPTCNKKVTEEGAQGDRFRCEKCDKTVTPTQRYLVSIQVTDNVSQAWLTLFNEAGIEFFGMEAAELKRRAQEDPLYIAKLAQGRMNRPVVMRLRVKEEMSSNSMTGEESDRLRMSVVRISEFMPIAGTSEETRRRLAQNLRTECDEILRLIEAYV”, the “soluble on expression in E. coli” value was “not soluble”.

In the case of “ENIEVHMLNKGAEGAMVFEPAYIKANPGDTVTFIPVDKGHNVESIKDMIPEGAEKFKSKINENYVLTVTQPGAYLVKCTIHYAMGMIALIAVGDSPANLDQIVSAKKPKIVQERLEKVIASAK”, the “soluble on expression in E. coli” value is reported as “soluble”.

In the case of “MGSDKIHHHHHHMSRITDYGFLFQTTFGTSKTNLVNNIQLSQMNSSSVQKQLKAAGIDTNSKKYKAALSEMMKNGNGAMFTNVQAIKNLMSQYDKNGDWIDPNTGLTGLAVTDENRNSYKHIISIPESSREEMFELAKKEFLNENGTLNGDTTKRESVYNNLYRKMDKDDRLSAGWTMEQYEHQYRQAFAEAAKAADPTWKAGKPIPAGALDGITRESVESGKKSVDIKI”, the “soluble on expression in E. coli” value is reported as “not soluble”.

In the case of “GPGSMSINFSAPYLVTEMEEKVVTSLPSGDTASGSGESTASPPIVISAAVPYTEEEKKLLTEQLRRHQRQQSQGDDDSSWNETTLPFISSMVEKVLQLAAQNRESDSTKDSGSGDENKPQEKANATDDVAGADAVSKVDTFVEDNDYVLEQLRLQPWPFFTLPRLCEILADPYKYNSIGDKLRGEKLQSAIRRCVLVSAPLNCDVRNNSS”, the “soluble on expression in E. coli” value is reported as “not soluble”.
